Laboratory results published in patent publication US5753435.

What was measured:
[1] = target: T1, low molecular weight (LMW) polypeptide component of the oxido reductase system of Penicillium chrysogenum (Penicillium chrysogenum)
T1 sequence: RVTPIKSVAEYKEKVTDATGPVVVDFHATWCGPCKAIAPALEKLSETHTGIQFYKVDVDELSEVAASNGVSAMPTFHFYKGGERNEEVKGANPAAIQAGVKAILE

[2] = target: thioredoxin obtained from Spirulina platensis (Spirulina platensis)
[3] = target: T1, low molecular weight (LMW) polypeptide component of the oxido reductase system of Penicillium chrysogenum (Penicillium chrysogenum); remark: listed apart in the source
[4] = target: T1, low molecular weight (LMW) polypeptide component of the oxido reductase system of Penicillium chrysogenum (Penicillium chrysogenum); remark: listed apart in the source
[5] = target: thioredoxin obtained from Spirulina platensis (Spirulina platensis); remark: listed apart in the source
[6] = target: δ-(L-α-aminoadipyl)-L-cysteinyl-D-valine (ACV) synthetase purified from Acremonium chrysogenum C10 (ATCC 48272) (Acremonium chrysogenum) (UniProt P25464)

B1: high molecular weight (HMW) polypeptide component of the oxido reductase system of Penicillium chrysogenum (enzyme)
chain: VHSKVVIIGSGPGAHTAAIYLSRAELQPVLYEGMLANGTAAGGQLTTTTDVENFPGFPSGIGGAELMDNMRAQSERFGTEIITETISKLDLSSRPFKMWTEWNDDEGSEPVRTADAVIIATGANARRLNLPGEETYWQNGISACAVCDGAVPIFRNKPLYVIGGGDSAAEEAMFLAKYGSSVTVLVRKDKLRASNIMADRLLAHPKCKVRFNTVATEVIGENKPNGLMTHLRVKDVLSNAEEVVEANGLFYAVGHDPASGLVKGQVELDDEGYIITKPGTSFTNVEGVFACGDVQDKRYRQAITSAGSGCVAALEAEKFIAETETHQEAKPVL
Work on B1 yielded a bis-ACV reductase activity: µmol NADPH oxidized per minute (340 nm) (µmol NADPH/minute) [1] of 2.25, a bis-ACV reductase activity: µmol NADPH oxidized per minute (340 nm) (µmol NADPH/minute) [2] of 1.93 and a production of isopenicillin N from bis-ACV by IPNS under non-reducing conditions: antibiotic µg/ml by bioassay on Micrococcus luteus [3] of 72 µg/mL. It also gave a DTNB reductase activity: increase of absorbance at 412 nm after 15 minutes (absorbance at 412 nm) [4] of 0.225 and a DTNB reductase activity: increase of absorbance at 412 nm after 15 minutes (absorbance at 412 nm) [5] of 0.08.

B2: oxido reductase enzyme system of Penicillium chrysogenum (HMW and LMW components together, with NADPH) (enzyme)
chain 1: B1 chain
chain 2: T1 sequence
Work on B2 yielded a KM for reduction of the protein disulphide in insulin (insulin) of 2300 µM.

B3: low molecular weight (LMW) polypeptide component of the oxido reductase system of Penicillium chrysogenum (protein)
chain: T1 sequence
B3 gave an ACVS activity: dpm of labelled ACV produced from [14C]valine [6] of 509 dpm.
